Source: patent US20170088605A1 (Novartis, published 2017)
Read-outs that look alike come from different tables or passages of the source.

Experiments:
Test in all cases: cell-based or functional assay
[1] = molecular target: T1, BKV serotype I infectious virus (VP1) (BK virus serotype I, UniProt P03088 1-362)
T1 sequence (looked up): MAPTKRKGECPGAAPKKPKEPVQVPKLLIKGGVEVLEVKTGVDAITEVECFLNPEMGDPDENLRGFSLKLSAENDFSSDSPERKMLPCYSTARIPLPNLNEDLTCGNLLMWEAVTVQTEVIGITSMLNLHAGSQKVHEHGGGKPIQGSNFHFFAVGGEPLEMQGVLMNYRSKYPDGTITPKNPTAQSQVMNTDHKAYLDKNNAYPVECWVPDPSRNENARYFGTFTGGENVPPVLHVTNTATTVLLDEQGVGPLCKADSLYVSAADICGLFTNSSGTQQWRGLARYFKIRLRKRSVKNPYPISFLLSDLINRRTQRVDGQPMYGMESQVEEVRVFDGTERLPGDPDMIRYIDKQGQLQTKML

[2] = molecular target: T2, BKV serotype II chimeric infectious virus (VP1 of isolate SB) (BK virus serotype II)
[3] = molecular target: T3, BKV serotype III chimeric infectious virus (VP1 of isolate AS) (BK virus serotype III)
[4] = molecular target: T4, BKV serotype IV chimeric infectious virus (VP1 of strain ITA-4) (BK virus serotype IV)
[5] = molecular target: JCV infectious virus, isolates Mad-1 and Mad-4 (VP1) (JC virus)
[6] = molecular target: T1, BKV serotype I infectious virus (VP1); remark: listed apart in the source
[7] = molecular target: T1, BKV serotype I infectious virus (VP1); remark: listed apart in the source
[8] = molecular target: T2, BKV serotype II chimeric infectious …; remark: listed apart in the source
[9] = molecular target: T3, BKV serotype III chimeric infectious …; remark: listed apart in the source
[10] = molecular target: T4, BKV serotype IV chimeric infectious …; remark: listed apart in the source

B1: NEG447 (antibody, human IgG1, lambda, V domains shown)
VH: QVQLQESGPGLVKPSETLSLTCTVSGGSISRDYWSWVRQPPGAGLEWIGNIYYSGSTNYNPSLKSRVTISVATNKKQFSLKLTSVTAADTAVYYCARVPGCSSTSCIDGWFDPWGQGILVTVSS
VL: QSVLTQPPSLSAAPGQKVTISCSGSSSNIGNTYVSWYQQLPGTAPKLLIYDNNKRPSGIPDRFSGSKSGTSATLGITGLQTGDEAVYYCGTWDSSLSAWVFGGGTRLTVLG
Question: For B1, which “neutralization EC50” value [1] is on record?
Answer: 0.004 µg/mL

Question: And the “neutralization EC90” value [1]?
Answer: 0.27 µg/mL

Question: What about the “neutralization EC50” value [2] of the same binder?
Answer: 0.024 µg/mL

Question: And the “neutralization EC90” value [2]?
Answer: 6.72 µg/mL

Question: And the “neutralization EC50” value [3]?
Answer: > 100 µg/mL

Question: What about the “neutralization EC90” value [3] of the same binder?
Answer: > 100 µg/mL

Question: What about the “neutralization EC50” value [4] of the same binder?
Answer: 0.012 µg/mL

Question: And the “neutralization EC90” value [4]?
Answer: 0.34 µg/mL

Question: What about the “neutralization EC50” value [5] of the same binder?
Answer: > 100 µg/mL

Question: What about the “neutralization EC90” value [5] of the same binder?
Answer: > 100 µg/mL

B2: P165E2 (antibody, human IgG1, lambda, V domains shown)
VH: QVQLQESGPGLVKPSETLSLTCTVSGGSISRDYWTWVRQPPGEGLEWIGNIYYSGSTNYNPSLKSRVTISVAASKKQFSLKLTSVTAADTAVYYCARVPGCSSTSCIDGWFDPWGQGILVTVSS
VL: QSVLTQPPSLSAAPGQRVTISCSGSSSNIGNTYVSWYQQLPGTAPKLLIYDNNKRPSGIPGRFSGSKSGTSATLGITGLQTGDEAAYYCGTWDSSLSAWVFGGGTRLTVLG
Question: Which “neutralization EC50” value [1] does the source give for B2 here?
Answer: 0.009 µg/mL

Question: And the “neutralization EC90” value [1]?
Answer: 0.37 µg/mL

Question: And the “neutralization EC50” value [2]?
Answer: 0.081 µg/mL

Question: And the “neutralization EC90” value [2]?
Answer: 7.98 µg/mL

Question: What about the “neutralization EC50” value [3] of the same binder?
Answer: > 100 µg/mL

Question: What about the “neutralization EC90” value [3] of the same binder?
Answer: > 100 µg/mL

Question: And the “neutralization EC50” value [4]?
Answer: 0.012 µg/mL

Question: What about the “neutralization EC90” value [4] of the same binder?
Answer: 0.46 µg/mL

Question: What about the “neutralization EC50” value [5] of the same binder?
Answer: > 100 µg/mL

Question: What about the “neutralization EC90” value [5] of the same binder?
Answer: > 100 µg/mL

B3: P7G11A (antibody, human IgG1, lambda, V domains shown)
VH: QVQLQESGPGLVKPSQTLSLTCTVSGGSISSGGYSWSWIRQPPGKGLEYIGYIYYRGTTYYNPSLKSRVTISVDTSNNQISLKLSSVTAADTAVYYCARALTHLVGVGWFDPWGQGTMVTVSS
VL: QSVLTQPPSVSAAPGQKVTISCSGGSSNLGSNYVSWYQQLPGTAPKLLIYDNNKRPSGIPDRFSGSKSGTSATLGITGLQTGDEADYYCGTWDGSLSAWVFGGGTKVTVLG
Question: With B3 as the binder, how does the “neutralization EC50” value [1] read?
Answer: 0.0008 µg/mL

Question: And the “neutralization EC90” value [1]?
Answer: 0.34 µg/mL

Question: And the “neutralization EC50” value [2]?
Answer: 0.074 µg/mL

Question: And the “neutralization EC90” value [2]?
Answer: 2.89 µg/mL

Question: What about the “neutralization EC50” value [3] of the same binder?
Answer: > 100 µg/mL

Question: And the “neutralization EC90” value [3]?
Answer: > 100 µg/mL

Question: What about the “neutralization EC50” value [4] of the same binder?
Answer: 0.015 µg/mL

Question: What about the “neutralization EC90” value [4] of the same binder?
Answer: 0.53 µg/mL

Question: And the “neutralization EC50” value [5]?
Answer: > 100 µg/mL

Question: What about the “neutralization EC90” value [5] of the same binder?
Answer: > 100 µg/mL

B4: P7G11 (antibody, human IgG1, lambda, V domains shown)
VH: QVQLQESGPGLAKPSQTLSLTCSVSGGSISSGGYSWSWIRQPPGKGLEYIGYIYYRGTTYYNPSLKSRITMSVDTSNNQISLKLTSVTAADTAVYYCARALTHLVGVGWFDPWGQGTMVTVSS
VL: QSVLTQPPSVSAAPGQKVTISCSGGSSNLGSNYVSWYQQLPGTAPKLLIYDNNKRPSGIPDRFSGSKSGTSATLGITGLQTGDEADYYCGTWDGSLSAWVFGGGTKVTVLG
Question: What does the source list for B4?
Answer: neutralization EC50 [1]: 0.007 µg/mL; neutralization EC90 [1]: 0.37 µg/mL; neutralization EC50 [2]: 0.187 µg/mL; neutralization EC90 [2]: 1.79 µg/mL; neutralization EC50 [3]: > 100 µg/mL; neutralization EC90 [3]: > 100 µg/mL; neutralization EC50 [4]: 0.011 µg/mL; neutralization EC90 [4]: 0.48 µg/mL; neutralization EC50 [5]: > 100 µg/mL; neutralization EC90 [5]: > 100 µg/mL

B5: 2075-456-4 (antibody, V domains shown)
VH: QVHLQQSGPELVKPGASVTISCKTSGYSFSSCWMNWVKQRPGQGLEWIGRIYPGDGDTKYTEKFKDKATLTADKSSSTAYMQLSSLTSVDSALYFCAISGSGLPYWGQGTLVTVSE
VL: DIQMTQTTSSLSASLGDRVTISCRASQDIHNYLNWYQQKPDGTIKLLIYSTSRLHSGVPSRFSGSGSGTHYSLTINNLEQEDIATYFCQQTHTLPLTFGAGTKLELK
Question: Which results are given for B5?
Answer: neutralization EC50 [6]: 0.092 µg/mL; neutralization EC90 [6]: 0.503 µg/mL

B6: 2081-66-5 (antibody, V domains shown)
VH: QVQLQQSGPELVKPGASVRISCKVSGFTFSNSWMNWVKQRPGQGLEWIGRIYPGDGDTQYNEKFKGKATLTADTSSNTAYIQLNSLTSVDSAVFFCARSRSGLDYWGQGTTLTVSS
VL: DIQMTQSTSSLSASLGDRVTISCRASQDIYNYLNWFQQKPDGTVKPLIYSTSRLHSGVSSRFSGSGSGTDYSLTISNLEREDIATYFCHQSHTVPFTFGSGTKLEIK
Question: What does the source list for B6?
Answer: neutralization EC50 [6]: 0.041 µg/mL; neutralization EC90 [6]: 0.601 µg/mL

B7: EBB-C1975-B5 (antibody, human IgG1, kappa, V domains shown)
VH: QVQLVQSGPGLVKPSETLSLTCTVSGGSTSAYYWTWIRQPPGKGLEWIGYISHSGSTNYNPSLKSRVTISADTSKNQLSLKVNSVTAADTAVYYCARLGDTASLSRFYYYIDVWGKGTTVTVSS
VL: EIVMTQSPDTLSLSPGERATLSCRASQSVSSNYLAWYQQKPGEAPRLLIYGASSRATGIPDRFSGSGSGTDFTLTISRLEPEDFAVYYCQQYGSSPPYTFGQGTRLEIKR
Question: B7 was tested. Which “neutralization EC50” value [7] did it give?
Answer: 0.033 µg/mL

Question: What about the “neutralization EC90” value [7] of the same binder?
Answer: 5.53 µg/mL

Question: And the “neutralization EC50” value [8]?
Answer: 0.42 µg/mL

Question: What about the “neutralization EC90” value [8] of the same binder?
Answer: 24.2 µg/mL

Question: What about the “neutralization EC50” value [9] of the same binder?
Answer: 0.76 µg/mL

Question: What about the “neutralization EC90” value [9] of the same binder?
Answer: > 100 µg/mL

Question: And the “neutralization EC50” value [10]?
Answer: 0.15 µg/mL

Question: What about the “neutralization EC90” value [10] of the same binder?
Answer: 7.83 µg/mL

B8: 2081-38-5 (antibody, V domains shown)
VH: QVQLQQSGPELVKPGASVKISCKASGYTFSSSWINWVKQRPGQGLEWIGRIYPGDGDTNYNGKFKGKATLTADKSSSTVDMHLSSLTYVDSAVYFCAIHSSGFPHWGQGTLVTVSA
VL: DIQMTQTTSSLSASLGGRVTISCRTSQDISDYLNWYQQKPDGAVKLLIYYTSRLHSGVPSRFSGSGSGTDYSLTISNLEQEDIATYFCQQTNTLPFTFGGGTKLEIK
Question: With B8 as the binder, how does the “neutralization EC50” value [6] read?
Answer: 0.053 µg/mL

Question: What about the “neutralization EC90” value [6] of the same binder?
Answer: 1.8 µg/mL

B9: 2081-25-6 (antibody, V domains shown)
VH: QVQLQQSGAELVRPGSSVKISCKASGYAFSRYWMNWVKQRPGQGLEWIGQIYPGDGDTKYNGKFKDTATLTADKSSSTAYLQLSSLTSEDSAVYFCAKYGNYGMDYWGQGTSVTVSS
VL: DAVMTQTPLSLPVSLGDQASISCRSSQSLEYGNGNTYLNWYLQKPGQSPQLLIYRVSNRFSGVLDRFSGSGSGTDFTLKISRVEAEDLGVYFCLQFTHVPYTFGGGTKLEIK
Question: B9 was tested. Which “neutralization EC50” value [6] did it give?
Answer: 0.213 µg/mL

Question: And the “neutralization EC90” value [6]?
Answer: 0.723 µg/mL

B10: 2075-16-1 (antibody, V domains shown)
VH: QVQLQQPGSELVRPGASVKLSCKASGYTFTNYWMHWVKQGHGQGLEWIGNIYPGSGNTNYGENFKSKGTLTVDTSSSTAYMHLSRLTSEDSAVYYCSRSAIYYGYDGHYFAMDYWGQGTSVTVSS
VL: DIQMTQSPSSLSASLGGKVTITCKASQDIRKYIAWYQHKPGKGPRLLINYTSTLQSGIPSRFRGSGSGRDYSFSISNLEPEDIATYYCLQYDNILFTFGTGTKLEIK
Question: Which results are given for B10?
Answer: neutralization EC50 [6]: 0.065 µg/mL; neutralization EC90 [6]: 1.25 µg/mL

B11: EBB-C1975-A3 (antibody, V domains shown)
VH: EVQLVETGGGLVQPGGSLRLSCAASGFTVRRNYMSWVRQAPGKGLEWVSGIYSGGSTYYADSVKGRFTISRDYSKNTLSLQMNTLRVEDTAVYFCAREDEFWSGYSAGVDWGQGTLVTVSS
VL: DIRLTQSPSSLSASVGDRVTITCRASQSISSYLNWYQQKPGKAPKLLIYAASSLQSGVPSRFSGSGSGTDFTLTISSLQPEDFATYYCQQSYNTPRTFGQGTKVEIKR
Question: With B11 as the binder, how does the “neutralization EC50” value [7] read?
Answer: 0.045 µg/mL

Question: What about the “neutralization EC90” value [7] of the same binder?
Answer: 4.84 µg/mL

Question: What about the “neutralization EC50” value [8] of the same binder?
Answer: 0.12 µg/mL

Question: And the “neutralization EC90” value [8]?
Answer: 25.2 µg/mL

Question: What about the “neutralization EC50” value [9] of the same binder?
Answer: > 100 µg/mL

Question: And the “neutralization EC90” value [9]?
Answer: > 100 µg/mL

Question: And the “neutralization EC50” value [10]?
Answer: 0.13 µg/mL

Question: And the “neutralization EC90” value [10]?
Answer: 8.18 µg/mL

B12: EBB-C1975-E7 (antibody, human IgG1, kappa, V domains shown)
VH: EVQLLESGGGLVRPGGSLRVSCAASGFTVSRNYMSWVRQAPGKGLEWVSGIYGGGRTYYAESVKGRFTISRDYSKNTLFLQMNTLRVEDTALYFCAREDEFWSGYSAGVDWGQGTLVTVSS
VL: DIQVTQSPSSLSASVGDRVTITCRASQSISSYLNWYQQEPGKAPKLLIYAASTLQTGVPSRFSGSGSGTDFTLTISSLQPEDFATYYCQQSYNTPRTFGQGTKVEIKR
Question: How did the “neutralization EC50” value [7] turn out when B12 was run?
Answer: 0.01 µg/mL

Question: What about the “neutralization EC90” value [7] of the same binder?
Answer: 2.62 µg/mL

Question: What about the “neutralization EC50” value [8] of the same binder?
Answer: 0.33 µg/mL

Question: What about the “neutralization EC90” value [8] of the same binder?
Answer: 9.61 µg/mL

Question: What about the “neutralization EC50” value [9] of the same binder?
Answer: > 100 µg/mL

Question: What about the “neutralization EC90” value [9] of the same binder?
Answer: > 100 µg/mL

Question: What about the “neutralization EC50” value [10] of the same binder?
Answer: 0.35 µg/mL

Question: And the “neutralization EC90” value [10]?
Answer: 8.61 µg/mL
